Results as given in US20230322953A1 (HARBOUR BIOMED SHANGHAI, published 2023).
Positions count from the first letter of the chain named.

B1: PR001987 (bispecific antibody, human IgG1, lambda, L234A L235A)
light: QAVVTQEPSLTVSPGGTVTLTCRSSTGAVTTSNYANWVQQKPGQAPRGLIGGTNKRAPWTPARFSGSLLGDKAALTLLGAQPEDEAEYFCALWYSNLWVFGGGTKLTVLGQPKAAPSVTLFPPSSEELQANKATLVCLISDFYPGAVTVAWKADSSPVKAGVETTTPSKQSNNKYAASSYLSLTPEQWKSHRSYSCQVTHEGSTVEKTVAPTECS
heavy: EVQLLESGGGLVQPGGSLRLSCAASGFTFNTYAMNWVRQAPGKGLEWVSRIRSKYNNYATYYADSVKDRFTISRDDSKSTLYLQMNSLRAEDTAVYYCVRHGNFGNSYVSWFAYWGQGTLVTVSSASTKGPSVFPLAPSSKSTSGGTAALGCLVKDYFPEPVTVSWNSGALTSGVHTFPAVLQSSGLYSLSSVVTVPSSSLGTQTYICNVNHKPSNTKVDKKVEPKSCDKTHTCPPCPAPEAAGGPSVFLFPPKPKDTLMISRTPEVTCVVVDVSHEDPEVKFNWYVDGVEVHNAKTKPREEQYNSTYRVVSVLTVLHQDWLNGKEYKCKVSNKALGAPIEKTISKAKGQPREPQVYTLPPCREEMTKNQVSLWCLVKGFYPSDIAVEWESNGQPENNYKTTPPVLDSDGSFFLYSKLTVDKSRWQQGNVFSCSVMHEALHNHYTQKSLSLSPGK
chain: EVQLLESGGGLVQPGGSLRLSCAASGFTFSSYAMIWVRQAPGKGLEWVSGISESGGSTYYADSVKGRFTISRDNSKNTLYLQMNSLRAEDTAVYFCVKDLDDILTGYYKDYWGQGTLVTVSSASEPKSSDKTHTCPPCPAPEAAGGPSVFLFPPKPKDTLMISRTPEVTCVVVDVSHEDPEVKFNWYVDGVEVHNAKTKPREEQYNSTYRVVSVLTVLHQDWLNGKEYKCKVSNKALGAPIEKTISKAKGQPREPQVCTLPPSREEMTKNQVSLSCAVKGFYPSDIAVEWESNGQPENNYKTTPPVLDSDGSFFLVSKLTVDKSRWQQGNVFSCSVMHEALHNHYTQKSLSLSPGK
notes: Structure 11 (Fab-Fc-VH): CD3 Fab from PR000511, BCMA VH from PR000940; human IgG1 knob/hole, AAG; also called BCMA×CD3 bispecific antibody molecule of Fab-Fc-VH asymmetric structure
B2: PR001988 (bispecific antibody, human IgG1, lambda, L234A L235A)
light: B1 light
heavy: B1 heavy
chain: EVQLVETGGGLIQPGGSLRLSCAASGFPVSSNYMSWVRQAPGKGLEWVSVIFSGGRTYYADSVKGRFTISRDNSKNTLYLQMNSLRAEDTAVYYCARRNWIDGRDAFDIWGQGTMVTVSSASEPKSSDKTHTCPPCPAPEAAGGPSVFLFPPKPKDTLMISRTPEVTCVVVDVSHEDPEVKFNWYVDGVEVHNAKTKPREEQYNSTYRVVSVLTVLHQDWLNGKEYKCKVSNKALGAPIEKTISKAKGQPREPQVCTLPPSREEMTKNQVSLSCAVKGFYPSDIAVEWESNGQPENNYKTTPPVLDSDGSFFLVSKLTVDKSRWQQGNVFSCSVMHEALHNHYTQKSLSLSPGK
notes: Structure 11 (Fab-Fc-VH): CD3 Fab from PR000511, BCMA VH from PR000943; human IgG1 knob/hole, AAG
B3: PR001989 (bispecific antibody, human IgG1, lambda, L234A L235A)
light: B1 light
heavy: B1 heavy
chain: B2 chain with P28T, S35T, R56S, N99I, W100A, I101V, D102A, R104H, A106V
notes: Structure 11 (Fab-Fc-VH): CD3 Fab from PR000511, BCMA VH from PR001035; human IgG1 knob/hole, AAG

The binders below were run against T1, human CD3 (TCR/CD3 complex) on human T cells (human, UniProt P07766 23-207) (assay: flow cytometry (FACS) on human T cells, Experiment 1).
T1 construct: whole, on cells
T1 sequence (P07766 23-207, one chain of several): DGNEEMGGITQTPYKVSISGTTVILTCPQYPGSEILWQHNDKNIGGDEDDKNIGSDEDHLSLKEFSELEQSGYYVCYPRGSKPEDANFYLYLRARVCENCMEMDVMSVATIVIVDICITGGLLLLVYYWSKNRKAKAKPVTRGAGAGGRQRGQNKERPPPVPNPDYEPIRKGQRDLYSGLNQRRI
With B1 the “Maximum MFI” value was 5160 MFI.
In the case of B2, the “Maximum MFI” value is reported as 5800 MFI.
B3 was tested, and the “Maximum MFI” value was 6680 MFI.
